The labels stand for the following.
B1: glmS ribozyme (parent)
chain: AUAAAAGCGCCAGAACUACAGAAAUGUAGUUGACGAGGAGGAGGUUUAUCGAAUUUUCGGCGGAUGCCUCCAAA

± gives the standard error. Variants at the floor of the assay were thinned out.

This data set covers variants of B1. Nature of the data set: self-cleavage kobs at 10000 uM GlcN6P; higher = faster cleavage; RNA array. The note with it: with glucosamine-6-phosphate. In short, it runs like this: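 Using a hybridised Cy3 probe at 37 °C, barcoded ribozyme variants transcribed in situ by E. coli RNA polymerase on sequenced MiSeq chips were monitored across tiles imaged over ~14 h. The flow contained glucosamine-6-phosphate from 40 μM to 10 mM in HEPES/KCl/Mg(OAc)2 buffer. Signals were normalised to baseline and to non-cleaving reference variants before per-tile medians were fit to one- or two-exponential decays to yield kobs. Weighted Michaelis–Menten fits across concentrations gave kcat and KM.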
For AUAAAAGCGCCAGAACUACAGAAAUGUAGUUGACGAGGAGGAGGUUUAUCGAACUUUCAGCGGAUGCCUCCAAA, the “self-cleavage kobs at 10000 uM GlcN6P” value worked out at 8.08e-05 ± 1.3e-05 s⁻¹.

For the variant AUAAAAGCGCCUGAAAUACAGAAAUGUAGUUGACGAGGAGGAGGUUUAUCGAAUUUUCGGCGGACGCCUCCAAA, the “self-cleavage kobs at 10000 uM GlcN6P” value came out at 5.77e-05 ± 1.6e-05 s⁻¹.

In the case of AUAAAAGCGCCAGAACUACAGAAAUGUAGUCGACGAGGAGGCGGUUUAUCGAAUUUUCGGCGGGUGCCUCCAAA, the “self-cleavage kobs at 10000 uM GlcN6P” value was less than 1e-05 s⁻¹.

AUAAAAGCGCCAGAGCUACAGAAAUGUAGUUGACAAGGAGGAGGUUUAUCGAAUUUGCGGCAGAUGCCUCCAAA: the “self-cleavage kobs at 10000 uM GlcN6P” value is less than 1e-05 s⁻¹.

Take AUAAAAGCUCCAGAACUACAGAAAUGUAGUGGACGAGGAGGAGGAUUAUCGAAUUUUCGGAGGAUGCAUCCAAA: the “self-cleavage kobs at 10000 uM GlcN6P” value was less than 1e-05 s⁻¹.

For AUAAAAGCGCCAGAAGUACAGAAAUGUAGUUGACGAGGAGGAGGUUUAUCGAACUUUCGGCGGAUGUCUCCAAA, the “self-cleavage kobs at 10000 uM GlcN6P” value was determined as 0.000749 ± 0.00015 s⁻¹.

With AUAAAAGCGCCCGAACUACAGAAAUGUACUUGACGAGGUGGAGGUUUAUCGAAUUUUCGGCGGAUGCCUCCAAA, the “self-cleavage kobs at 10000 uM GlcN6P” value amounted to 0.000876 ± 0.0002 s⁻¹.

With AUAAAAGCGCCGGAACUACAGAAAUGUAGUUGACGAGGAGGAGGAUUAUCGAAUAUUCGGCGGAUGCCUCCAAA, the “self-cleavage kobs at 10000 uM GlcN6P” value turned out to be 0.00202 ± 0.00039 s⁻¹.

With AUAAAAGAGCCAGAUCUACAGAAAUGUAGUUGACCAGGAGGAGGUUUAUCGAAUUUUCGGCGGAUGCCUCCAAA, the “self-cleavage kobs at 10000 uM GlcN6P” value was less than 1e-05 s⁻¹.

As for AUAAAAGCGCCAGAACUACAGAAAUGUAGUUGACGACGAGGAGGUUUAUCGAGUGUUCGGCGGAUGCCUCCAAA, the “self-cleavage kobs at 10000 uM GlcN6P” value was 3.2e-05 ± 1.4e-05 s⁻¹.

On to AUAAAAGCGCUAGAACUACAGAAAUGUAGUUUACGAGGAGGAGGGUUAUCGAAUUUUCGGGGGAUGCCUCCAAA, for which the “self-cleavage kobs at 10000 uM GlcN6P” value is less than 1e-05 s⁻¹.

Regarding AUAAAAGCGCCAGAACUACAGAAAUGUAGUUGACGAGGAGGAGGUUUAUAGAAUGUCCGGCGGAUGCCUCCAAA, the “self-cleavage kobs at 10000 uM GlcN6P” value is less than 1e-05 s⁻¹.

With AUAAACGCGCCAGAACUACAGAAAUGUAGUUAACGAGGAGGAUGUUUAUCGAAUUUUCGGCGGAUGCCUCCAAA, the “self-cleavage kobs at 10000 uM GlcN6P” value was less than 1e-05 s⁻¹.

Consider AUAAAAGCGCCAGAUCUACAGAAAUGUAGUUUACGAGGAGGAGGUUUAUCGAAUUUUCGGCGGAUACCUCCAAA, for which the “self-cleavage kobs at 10000 uM GlcN6P” value amounted to 0.000174 ± 4e-05 s⁻¹.

Consider AUAAAAGCGCCAGAAAUACAGAAAUGUAAUUGACGAGGAGGAGGUUUAUAGAAUUUUCAGCGGAUGCCUCUAAA, for which the “self-cleavage kobs at 10000 uM GlcN6P” value is less than 1e-05 s⁻¹.

Turning to AUAAACGCGCCAGAACUACAGAAAUGUAGUGGACGAGGAGCAGGUUUAUCGAAACUUCGGCGGAUGCUUCCAAA, the “self-cleavage kobs at 10000 uM GlcN6P” value was less than 1e-05 s⁻¹.

Regarding AUAAAAGCGCCAGAUCUACAGAAAUGUACUUGACGAGGAGGAGGUUUAUCGAAUUUUAGGCGGAUGCCUCCAAA, the “self-cleavage kobs at 10000 uM GlcN6P” value was found to be 6.87e-05 ± 2.7e-05 s⁻¹.

In the case of AUAAAAGCGCCAGAGCUACAGAAAUGUAGUUGACGAGGAGGAGGUUUAUCGGAUUUUCGGCGGAUACUUCCAAA, the “self-cleavage kobs at 10000 uM GlcN6P” value came out at 0.000149 ± 2.8e-05 s⁻¹.

As to AUAAAAGCGCCAGAACUACAGAAAUGUAGUUGACGAGGAGGAGGUUUAUGGAGUUUUCGGCGGAUGCGUACAAA, the “self-cleavage kobs at 10000 uM GlcN6P” value came to 7.46e-05 ± 1.9e-05 s⁻¹.

In the case of AUAAAAGCGCCAGAAUUACAGAAAUGUAGUUGACGAGGCGGAGGUUUAUCGAGUUUUCGGCGGAUGCCUCCAAA, the “self-cleavage kobs at 10000 uM GlcN6P” value is 0.00494 ± 0.0011 s⁻¹.

Regarding AUAAAAGCGCCAGAAGUACAGAAAUGUAGUUGGCGAGGAGGAGGUUUAUCGAAUUUUGGGCGGAUGCCUCCAAA, the “self-cleavage kobs at 10000 uM GlcN6P” value was less than 1e-05 s⁻¹.

AUAAAAGCGCCAGAUCUACAGAAAUGUAGUUGACGAGGAGGAGGUUUAUCGAAUGUUCGGCGUAUGUCUCCAAA: the “self-cleavage kobs at 10000 uM GlcN6P” value was less than 1e-05 s⁻¹.

For the variant AUAAAAGCGCCAGAACUACAGAAAUGUAGUUGACGACGAGGAGGUUUAUCAAAUUUUCGGCGGAUGCCACCAAA, the “self-cleavage kobs at 10000 uM GlcN6P” value is less than 1e-05 s⁻¹.

Consider AUAAAAGCGCCAGAACUACAGAAAUGUAGUUGACGAGGAUGAGGAUUAUCGAAUUUUCGGCGGAUGCCUGCAAA, for which the “self-cleavage kobs at 10000 uM GlcN6P” value turned out to be 0.000163 ± 3.4e-05 s⁻¹.

On to AUAAAAGCGCUAGAACUACAGAAAUGUAUUUGACGAGGAGGAGGUUUAUCGAAUUUUCGGCGGAUGCCUACAAA, for which the “self-cleavage kobs at 10000 uM GlcN6P” value is 8.25e-05 ± 2.8e-05 s⁻¹.

With AUAAAAGCGCCAGAACUACAGAAAUGUAGUUGAUGAGGAGGAGGAUUAUAGAAUUUUCGGCGGAUGCCUCCAAA, the “self-cleavage kobs at 10000 uM GlcN6P” value is less than 1e-05 s⁻¹.

Take AUAAAAGCGCCAGAACUACAGAAAUGUAGUUGACGAGGAGGAGGUUUAUUGAAUUUUCUGCGGUUGCCUCCAAA: the “self-cleavage kobs at 10000 uM GlcN6P” value was less than 1e-05 s⁻¹.

For the variant AUAAAAGCGCCAGAACUACAGAAAUGUAGUUGACGAGGAGGAGGUUUAUCGAAUUUUCGGCGGACGCCCCCAAA, the “self-cleavage kobs at 10000 uM GlcN6P” value was 0.000106 ± 2.2e-05 s⁻¹.

Regarding AUAAAAGCGCCAGAACUACAGAAAUGUAGUUGAUGAGAAGGAGGUUUAUCGAAUUUUCGGCGGAUGCCUGCAAA, the “self-cleavage kobs at 10000 uM GlcN6P” value came to 3.44e-05 ± 1.7e-05 s⁻¹.

Take AUAAAAGCGCCAGAACUACAGAAAUGUAGAUGAGGAGGAGGAUGUUUAUCGAAUUUUCGGUGUAUGCCUCCAAA: the “self-cleavage kobs at 10000 uM GlcN6P” value was less than 1e-05 s⁻¹.

AUAAAAGCGCCAGACCUACAGAAAUGUAGGUGACGAGGAGGAGGUUUAUCGAAUUUUCGGCGGAUGCGUCCAAA: the “self-cleavage kobs at 10000 uM GlcN6P” value is 0.000435 ± 0.00015 s⁻¹.

Regarding AUAAAAGCGCCAGAACUACAGAAAUGUAGUUGACGAGGGGGAGGUUUAUCGAAUUUUCGGCGGAUGAAUCCAAA, the “self-cleavage kobs at 10000 uM GlcN6P” value was 6.69e-05 ± 1.7e-05 s⁻¹.

In the case of AUAAAAGCGCCAGAACUACAGAAAUGUAGUUGUCGAGGAGGAGGUUUAUGGAAUUUUCGGAGGAUGCCUUCAAA, the “self-cleavage kobs at 10000 uM GlcN6P” value was 6e-05 ± 1.8e-05 s⁻¹.

For AUAAAAGCGCCAGAACUACAGAAAUGUAGUUGACGAGGAAGAGGUUUAUCGAAUUUUCUGAGGAUGCCUCCAAA, the “self-cleavage kobs at 10000 uM GlcN6P” value was less than 1e-05 s⁻¹.

For AUAAAAGCACCAGAACUACAGAAAUGUAGUUGUCGAGGAGGAGGUUUAUCAUAUAUUCGGCGGAUGCCUCCAAA, the “self-cleavage kobs at 10000 uM GlcN6P” value is less than 1e-05 s⁻¹.

As to AUAAAAGUGCCAGAACUACAGAAAUGUAGUUGACGAGGAGGAGGUUUAUCGAAUUUUGGGCGGAUGCCGCCAAA, the “self-cleavage kobs at 10000 uM GlcN6P” value came to 0.000536 ± 0.00016 s⁻¹.

Take AUAAAAGCGCCAGAACUACAGAAAUGUACUUGACGAGGAGGAGGUUUAUCGAAUUUUCGGCGGAUGCCCCUAAA: the “self-cleavage kobs at 10000 uM GlcN6P” value was found to be 4.54e-05 ± 2.1e-05 s⁻¹.
